Measured values taken from patent publication US12630594B2, “Allergy antigen and epitope for same” (HOYU CO., LTD., priority 2017, dated 2026).

B1: Glycogen phosphorylase, muscle form-like (protein)
chain: MSKPLSDHDKRKQISVRGLAGVENVAELKVAFNRHLHFTLVKDRNVANKRDYYFALANTVRDHLVGRWIRTQQYYYEKDPKRVYYISLEFYMGRTLQNTMVNLALENACDEAIYQLGLDMEELEDMEEDAGLGNGGLGRLAACFLDSMASLGLAAYGYGIRYEFGIFNQKIVNGWQVEEADDWLRYGNPWEKARPEYMRPVKFYGRTEHTPDGVKWVDTQVVLALPYDTPIPGYRNNIVNTMRLWSAKAPCDFNLKDFNVGGYIQAVLDRNLCENISRVLYPNDNFFEGKELRLKQEYFVVAATLQDVVRRFKASKFGSREIVRTDFAELPNKVAIQLNDTHPAMAIPELMRVLVDEEKLGWDKAWDVCVRTCAYTNHTVLPEALERWPIDLFHHLLPRHLEIIYEINRRFMEYVASKFPGDNDRLRRMSLIEEGGCKKVNMAHLCIVGSHAVNGVARIHSEILIATLFKDFYELDPHKFQNKTNGITPRRWLVMCNPGLAEVIAEKIGEEFIRDLDQLKRLLKFVNDDAFIRDIAKVKQENKLKFAVHLEEHYKVKINPQSMFDFQVKRIHEYKRQLLNCLHMITYYNRIKKEPNKHWTPRTIMVGGKAAPGYHTAKMIIRLITAIGEVVNHDPVVGDRLKVIFLENYRVTLAEKAIPSADLSEQISTAGTEASGTGNMKFMLNGALTIGTMDGANVEMAEEAGEENFFIFGMRVEDVDAMDAGKGYHASEYYNRIPELKQAMDQIAGGFFSPKQPDLFKELVDLLMHHDRFKVFADYEAYIKCQDKVNQLYKNPKEWTKMVIHNIAGCGKFSSDRTIAQYAREIWGMEPSLEKIPAPDEKLK
modifications: glycogen phosphorylase, muscle form-like
B2: Myosin-binding protein C, fast-type-like (protein)
chain: MPEAADAVKPEGEEGEAPAEAEENTAEDDEPLPEGEEGAHQSQEITGLFLQHPETTVAITGTDIVFTAKVDSTTLSRKPTIKWLKGKWLDLGSKAGKHMQFKETFDRATKIYTWDMKIIKVVPGDAGAYRCEVTSKDKCDSSAFDISVEAVQIEEEHDSLAAFKRTDAGEDEGSLDFSALLKATKKKKKPVVDEEKADVWEILKNAQPSEYEKIAFEYGITDLRGLLKRLKKMKTVEPKHSDAFLKRMESAYSVDKGKKIVLQVEVVDPNAQVKWLKNGQEIKSSAKYIIESVGNIRTLTINKCSLADDAAYECVIGEEKSFTEVFVKEPPVTITKLLDDYHVVVGERVEFEVEVSVEGAHVNWMFEDQELSRDTHKYRFKKDGLKHMLIIQEATLDDIGMYWCFTNGGRTKGELEVEEKELEVLQNIADLTVKAEDQAMFKCEVSDEKVTGKWLKDGVEVLPSSRIKLTHIGRIHRLTIDDVKPEDAGDYTFIPDGYALSLSAKLNFLEIKIDYVPRQEPPKIHLDTTGNMVSQNTIIVVAGNKLRLDVEISGEPPPTVVWAKGDTAITAVEGRVRTESRKDLSCFVIEGAEREDEGNYTIIVTNPAGEDKAHLFVKIVDVPDCPENVKCTSVGEDCATMVWDPPKFDGGAPVTGYLMERKKKGSTRWTKLNFDVYEGVTYEAKRMIEGVLYEMRVYAVNGIGMSQPSLNSKPFMPIAATSEPLGLKVHDVTDTTCTLKWLAPEKIGAGGLDGYVIEYCKEGDTEWVVANTELVERQNYTVRNLPTAEKINFRVVAVNIAGRSPPTGLSQPVTIREIVELPKIRLPRYLRQKYIRRVGDKINLTIPFQGKPRPKVQWYKDGEELDTRVASIRNSEVDSILFIRSAERSHSGKYELVLQIENMEARAILEIRIVEAPGPPEVVKVTDVWGFNAALEWKPPKDDGNCEITGYTIQKADKKTNEWFTIYEHNRRTNCTASDLIMGNEYMFRVFSENLVGKSEDFCLSKDTAIIPKIGLEYNPPPFKEKDMQSAPKFIQPLLDRSVVAGYSTTISSAVKTCPKPKIRWLRNKIPLDENPRFLMQNNQGVLTLNIRKPSQYDGGKFTCKAINSLGEDVVECTLLVRALKDKEDGDEK
modifications: myosin-binding protein C, fast-type-like
B3: Myosin binding protein H-like (protein)
chain: MPAKPAPIKKAAPKEPAPKKEEAPAPAPAEAAPAEVAPPAEVEAPPAEAAPAEAAAPAEAAPTEEKAPAEPAPEQPKAPTPPPPDEPTSEPLEVTVDDKSDTSVTITWRPPKTIPANSGLDGYTVEITKEGTEDWKAANEDLTVSCRYVIKNQTTGDRLLIRVVAVNPGGRSPPATIADPVLVKEVGARPKVRLPRFLRQRYVKKVGEKINIVIPYSGKPKPVVSWLKDGQPLDSKRANIRTSDRDSILFIRQAERVDSGSYEMCVKVDDFEDKAAIIIQIIELPGPPASIKIVDVWGFNVALEWTVPKDNGNTEITGYTVQKADKKTGDWFNILEHYARLNATISDLIMGNTYTFRVFAENKCGLSEECAVTKGEATIVKEVIDYKPTPFVEHDFTEAPKFTTVLNDRSTTVGYSTKLLCSVRGCPKPKIMWMKNKMILNNMDNPKYRMISTGGICTLEIRKPGPYDGGEYVCRAENTLGKVDTGCKLEVRKPGQADADKDKKEQ
modifications: Myosin binding protein H-like
B4: Desmin (fragment) (protein)
chain: ISSYRRTFGSGIGSTPGMSSMFSHGGRGSSGSAHMSSRVYEMTKSSARPSYSSGSIRSSSGGAMRSYAGMGEKLDFNLADATNRDFLDTRTNEKAELQHLNDRFASYIEKVRFLEQQNATLVVEIERLRGHEPTRVAEMYEEEMRELRRQVDGMSNDRARMEVERDNLADDLQKLKLRLQEVIHQREEAENNLSAFRADVDSATLARLDLERRIESLQEEITFLKKIHEEEIHELTSQMQETSVQVQMDMSKPDLTVALRDIRMQYEGIAAKNISEAEDWYKSKVSDLNQAVNKNNDALRQAKQESMEFRHQIQSYTCEIDSLKGTNESLLRQMREMEDRLGNEAGGYQDSVTRLEAEIAKMKDEMARHLREYQDLLNVKMALDIEIATYRKLLEGEESRITVSGSKSSHSGSHSAASLYSTVGFRETSPDVGRSAEVHSKKTVLIKTIETRDGEVVSE
modifications: Desmin (fragment)
B5: Alpha-actinin-3 (protein)
chain: MTAIETQVQYGSYMTSEQVYMTQEDDWDRDLLLDPAWEKQQRKTFTAWCNSHLRKAGTQIENIEEDFRNGLKLMLLLEVISGERLPKPDKGKMRFHKIANVNKALDFICSKGVKLVSIGAEEIVDGNVKMTLGMIWTIILRFAIQDISVEETSAKEGLLLWCQRKTAPYRNVNVQNFHISWKDGLALCALIHRHRPDLIDYSKLRKDDPMGNLNTAFEVAEKYLDIPKMLDAEDIVNTPKPDEKAIMTYVSCFYHAFAGAEQAETAANRICKVLAVNQENEKLMEEYEKLASELLEWIRRTIPWLENRVAEQTMRAMQQKLEDFRDYRRVHKPPKVQEKCQLEINFNTLQTKLRLSNRPAFMPSEGKMVSDIANAWKGLEQVEKGYEEWLLTEIRRLERLDHLAEKFKQKSSLHESWTSGKVELLSMKDYESASLMEIRALMRKHEAFESDLAAHQDRVEQIAAIAQELNELDYHDAVTINARCQGICDQWDNLGTLTQKRRDSLERVEKLWETIDQLYLEFAKRAAPFNNWMDGAMEDLQDMFIVHSIEEIQSLITAHDQFKATLPEADKERVATMGIQNEIVKIAQTYGIKLSGVNPYTNLSPQDITDKWDAVKHLVPLRDQMLQEEVARQQSNERLRRQFAAQANIIGPWIQTKMEEISHVSVDIAGSLEEQMSNLKQYEQNIINYKCNIDKLEGDHQLSQESLIFDNKHTNYTMEHVRVGWEQLLTTIARTINEVENQILTRDAKGISQEQLNEFRASFNHFDRKRNGMMDPDDFRACLISMGYDLGEVEFARIMTLVDSNNTGVVTFQAFIDFMTRETAETDTADQVMASFKILASDKTYITVEELRRELPPEQADYCISRMTSYIGSGAPPGALDYISFSSALYGESDL
modifications: PREDICTED: alpha-actinin-3

Tested on: IgE antibody in the serum of a fish-allergic patient
Test: Immunoblotting of two-dimensional electrophoresis patterns of fish meat proteins with patient serum
Format: binding, human
Conditions: proteins contained in salmon meat; serum from fish-allergic patient 2 (FIG. 1B left)
Description: Proteins contained in fish were analyzed by the aforementioned technique to identify antigens of an allergy to fish. To be specific, proteins were extracted from fish meat and subjected to two-dimensional electrophoresis under the conditions described below.
The electrophoresis in the first dimension was isoelectric focusing, which was performed using isoelectric focusing gels with a gel-strip length of 5 to 10 cm and a gel pH range of 3 to 10. The pH gradient of the gels in the direction of electrophoresis was as follows: with the total gel-strip length being taken as 1, the gel-strip length up to pH 5 was “a=0.15 to 0.3”, the gel-strip length from pH 5 to 7 was “b=0.4 to 0.7”, and the gel-strip length above pH 7 was “c=0.15 to 0.3”. More specifically, the isoelectric focusing was performed using the IPG gels, Immobiline Drystrip (pH3-10NL), produced by GE Healthcare Bio-Sciences Corporation (hereinafter abbreviated as “GE”). The electrophoresis system used was IPGphor produced by GE. The maximum current of the electrophoresis system was limited to 75 μA per gel strip. The voltage program adopted to perform the first-dimensional isoelectric focusing was as follows: (1) a constant voltage step was performed at a constant voltage of 300 V until the volt-hours reached 750 Vhr (the current variation width during electrophoresis for 30 minutes before the end of this step was 5 μA); (2) the voltage was increased gradually to 1000 V for 300 Vhr; (3) the voltage was further increased gradually to 5000 V for 4500 Vhr; and then (4) the voltage was held at a constant voltage of 5000 V until the total Vhr reached 12000.
The electrophoresis in the second dimension was SDS-PAGE, which was performed using polyacrylamide gels whose gel concentration at the distal end in the direction of electrophoresis was set to 3 to 6% and whose gel concentration at the proximal end was set to a higher value than that at the distal end. More specifically, the SDS-PAGE was performed using NuPAGE 4-12% Bris-Tris Gels (IPG well, Mini, 1 mm) produced by Life Technologies. The electrophoresis system used was XCell SureLock Mini-Cell produced by Life Technologies. The electrophoresis was run at a constant voltage of 200 V for about 45 minutes using an electrophoresis buffer composed of 50 mM MOPS, 50 mM Tris base, 0.1% (w/v) SDS and 1 mM EDTA.
Identification of antigens by immunoblotting was carried out by taking all the steps up to the step of “Second-dimensional SDS-PAGE” as described above in Example 1, followed by the steps of “Transfer to membrane”, “Immunoblotting” and “Analysis” as described below.
To be specific, proteins in the second-dimensional electrophoresis gels were transferred to a membrane (PVDF membrane) according to the following procedure. • (1) The PVDF membrane was immersed in 100% methanol followed by milliQ water, and then moved into the transfer buffer to hydrophilize the PVDF membrane. • (2) After sponge, filter paper, the second-dimensional electrophoresis gels treated by second-dimensional SDS-PAGE, the hydrophilized PVDF membrane, filter paper, and sponge were put in place in this order, the transfer system was energized at a constant voltage of 30 V for one hour. Immunoblotting
Immunoblotting of the membrane was carried out using, as a primary antibody, a serum sample from patient 1 with a fish allergy or a serum sample from a non-fish-allergic subject. This fish-allergic patient 1 was a patient diagnosed with immediate-type allergy to fish. […]

Row | Molecule | spots detected by immunoblotting, different from spots with serum of non-fish-allergic subject
1 | B1 | newly detected
2 | B2 | newly detected

Same assay, conditions: proteins contained in salmon meat; serum from fish-allergic patient 3 (FIG. 1B right)

Row | Molecule | spots detected by immunoblotting, different from spots with serum of non-fish-allergic subject
3 | B3 | detected
4 | B4 | detected

Same assay, conditions: spots in two-dimensional electrophoresis gel of proteins in fish; patients diagnosed with immediate-type allergy

Row | Molecule | specific binding to IgE antibodies from fish-allergic patients
5 | B3 | specific binding to IgE antibodies
6 | B4 | specific binding to IgE antibodies
7 | B1 | specific binding to IgE antibodies
8 | B2 | specific binding to IgE antibodies
9 | B5 | specific binding to IgE antibodies
